Reference: paper PMC2173853 (The Journal of Cell Biology, 2002)
Where two headings read alike, the source gives them in different places.

Key:
Assay in all cases: pull-down
[1] = biological target: T1, Sly1p cleaved from purified GST–Sly1p (untagged soluble Sly1p) (S. cerevisiae, UniProt P22213 1-666)
T1 sequence: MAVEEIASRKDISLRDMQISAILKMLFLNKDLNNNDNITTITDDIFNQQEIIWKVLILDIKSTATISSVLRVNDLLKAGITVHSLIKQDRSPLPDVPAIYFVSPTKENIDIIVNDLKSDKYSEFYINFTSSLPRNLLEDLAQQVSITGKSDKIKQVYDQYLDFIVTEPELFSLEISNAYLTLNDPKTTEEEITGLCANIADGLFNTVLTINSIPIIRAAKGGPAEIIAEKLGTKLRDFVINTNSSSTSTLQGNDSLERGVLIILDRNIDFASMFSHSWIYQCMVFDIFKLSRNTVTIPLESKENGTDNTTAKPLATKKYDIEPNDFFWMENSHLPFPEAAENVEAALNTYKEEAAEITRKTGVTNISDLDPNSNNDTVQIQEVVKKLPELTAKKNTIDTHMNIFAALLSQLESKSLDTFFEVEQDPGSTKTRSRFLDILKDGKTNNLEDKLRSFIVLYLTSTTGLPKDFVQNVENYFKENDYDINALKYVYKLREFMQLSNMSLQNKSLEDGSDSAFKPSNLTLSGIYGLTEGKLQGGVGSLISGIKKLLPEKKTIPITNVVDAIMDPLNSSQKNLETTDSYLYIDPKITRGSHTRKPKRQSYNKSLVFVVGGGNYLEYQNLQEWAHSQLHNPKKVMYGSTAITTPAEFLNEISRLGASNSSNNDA

[2] = biological target: T2, GST–Sec22p (yeast, UniProt P22214)
T2 sequence: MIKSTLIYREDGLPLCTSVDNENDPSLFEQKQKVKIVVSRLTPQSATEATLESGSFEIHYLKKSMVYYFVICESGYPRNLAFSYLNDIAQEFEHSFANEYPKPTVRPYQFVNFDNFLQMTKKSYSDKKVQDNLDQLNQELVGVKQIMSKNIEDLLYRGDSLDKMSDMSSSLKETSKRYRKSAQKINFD

[3] = biological target: T3, heterodimeric GST–Sed5p–His10-Sly1p complex bound to beads (S. cerevisiae, UniProt Q01590;P22213)
T3 sequence 1: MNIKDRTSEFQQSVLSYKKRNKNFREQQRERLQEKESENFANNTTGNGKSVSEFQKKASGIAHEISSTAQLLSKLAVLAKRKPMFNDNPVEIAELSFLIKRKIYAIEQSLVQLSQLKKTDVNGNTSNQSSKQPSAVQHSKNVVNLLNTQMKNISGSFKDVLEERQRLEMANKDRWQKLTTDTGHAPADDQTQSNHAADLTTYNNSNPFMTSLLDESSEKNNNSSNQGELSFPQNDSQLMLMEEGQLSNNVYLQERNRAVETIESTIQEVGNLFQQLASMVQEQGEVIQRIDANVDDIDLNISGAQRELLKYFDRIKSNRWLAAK
T3 sequence 2: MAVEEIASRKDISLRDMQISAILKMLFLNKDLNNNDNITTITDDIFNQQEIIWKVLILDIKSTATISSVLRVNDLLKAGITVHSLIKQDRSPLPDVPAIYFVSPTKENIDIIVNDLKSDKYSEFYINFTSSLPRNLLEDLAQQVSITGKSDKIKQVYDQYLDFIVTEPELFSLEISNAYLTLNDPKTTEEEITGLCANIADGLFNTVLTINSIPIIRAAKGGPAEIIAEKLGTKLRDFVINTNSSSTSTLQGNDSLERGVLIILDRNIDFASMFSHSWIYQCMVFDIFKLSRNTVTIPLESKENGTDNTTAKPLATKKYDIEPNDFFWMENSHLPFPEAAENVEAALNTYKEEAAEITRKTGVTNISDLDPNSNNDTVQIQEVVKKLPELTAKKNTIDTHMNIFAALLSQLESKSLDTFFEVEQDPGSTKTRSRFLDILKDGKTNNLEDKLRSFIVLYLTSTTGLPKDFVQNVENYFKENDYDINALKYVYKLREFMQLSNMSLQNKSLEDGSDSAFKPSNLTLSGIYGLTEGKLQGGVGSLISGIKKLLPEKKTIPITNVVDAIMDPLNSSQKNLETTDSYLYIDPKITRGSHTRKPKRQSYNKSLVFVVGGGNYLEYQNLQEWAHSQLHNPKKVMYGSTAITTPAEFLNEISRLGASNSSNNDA

[4] = biological target: T4, GST–Sed5p (entire cytosolic region) (S. cerevisiae, UniProt Q01590 1-324)
T4 sequence: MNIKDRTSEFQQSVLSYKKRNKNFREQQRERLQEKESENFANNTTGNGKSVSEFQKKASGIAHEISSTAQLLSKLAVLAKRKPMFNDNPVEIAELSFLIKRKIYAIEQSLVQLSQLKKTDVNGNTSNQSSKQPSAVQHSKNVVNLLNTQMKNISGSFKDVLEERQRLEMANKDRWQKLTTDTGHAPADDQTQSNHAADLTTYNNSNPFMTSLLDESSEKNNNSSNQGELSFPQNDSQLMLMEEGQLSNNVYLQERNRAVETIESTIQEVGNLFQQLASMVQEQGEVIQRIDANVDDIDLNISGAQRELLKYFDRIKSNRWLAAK

[5] = biological target: T5, preassembled SNARE complex of GST–Sec22p, Sed5p, Bos1p and Bet1p (yeast, UniProt P22214;Q01590;P25385;P22804)
T5 sequence 1: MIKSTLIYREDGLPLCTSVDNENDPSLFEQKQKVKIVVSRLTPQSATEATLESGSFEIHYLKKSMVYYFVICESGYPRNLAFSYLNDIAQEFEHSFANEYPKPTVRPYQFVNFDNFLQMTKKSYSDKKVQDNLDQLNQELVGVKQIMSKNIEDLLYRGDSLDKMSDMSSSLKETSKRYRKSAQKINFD
T5 sequence 2: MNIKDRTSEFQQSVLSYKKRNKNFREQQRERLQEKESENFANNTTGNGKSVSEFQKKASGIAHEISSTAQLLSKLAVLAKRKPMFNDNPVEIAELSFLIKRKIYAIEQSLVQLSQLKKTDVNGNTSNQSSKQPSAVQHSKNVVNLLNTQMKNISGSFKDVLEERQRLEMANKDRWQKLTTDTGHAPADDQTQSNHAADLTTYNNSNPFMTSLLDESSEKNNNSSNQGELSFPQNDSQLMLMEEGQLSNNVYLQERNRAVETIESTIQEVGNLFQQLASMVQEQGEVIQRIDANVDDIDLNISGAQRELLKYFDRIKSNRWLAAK
T5 sequence 3: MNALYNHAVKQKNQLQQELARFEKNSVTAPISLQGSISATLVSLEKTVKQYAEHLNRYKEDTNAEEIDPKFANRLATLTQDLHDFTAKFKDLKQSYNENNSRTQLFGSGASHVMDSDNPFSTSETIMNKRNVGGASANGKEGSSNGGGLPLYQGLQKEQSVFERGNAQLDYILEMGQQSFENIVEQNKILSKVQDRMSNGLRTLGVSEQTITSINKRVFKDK
T5 sequence 4: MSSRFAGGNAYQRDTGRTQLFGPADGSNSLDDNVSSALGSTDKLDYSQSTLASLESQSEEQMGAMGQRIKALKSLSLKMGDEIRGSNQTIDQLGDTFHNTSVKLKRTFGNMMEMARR

[6] = biological target: T2, GST–Sec22p; remark: listed apart in the source
[7] = biological target: T2, GST–Sec22p; remark: listed apart in the source
[8] = biological target: T2, GST–Sec22p; remark: listed apart in the source

B1: GST–Sed5N (NH2-terminal domain) (domain or fragment)
chain: MNIKDRTSEFQQSVLSYKKRNKNFREQQRERLQEKESENFANNTTGNGKSVSEFQKKASGIAHEISSTAQLLSKLAVLAKRKPMFNDNPVEIAELSFLIKRKIYAIEQSLVQLSQLKKTDVNGNTSNQSSKQPSAVQHSKNVVNLLNTQMKNISGSFKDVLEERQRLEMANKDRWQKLTTDTGHAPADDQTQSNHAADLTTYNNSNPFMTSLLDESSEKNNNSSNQGELSFPQNDSQLMLMEEGQLSNNV
binding result [1]: binds

B2: His6-Bos1p lacking the transmembrane (TM) (domain or fragment)
chain: MNALYNHAVKQKNQLQQELARFEKNSVTAPISLQGSISATLVSLEKTVKQYAEHLNRYKEDTNAEEIDPKFANRLATLTQDLHDFTAKFKDLKQSYNENNSRTQLFGSGASHVMDSDNPFSTSETIMNKRNVGGASANGKEGSSNGGGLPLYQGLQKEQSVFERGNAQLDYILEMGQQSFENIVEQNKILSKVQDRMSNGLRTLGVSEQTITSINKRVFKDK
stoichiometry of Sly1p–Sed5p–Bos1p–Sec22p–Bet1p in the isolated complex [2]: 0.8 molar ratio (GST–Sec22p = 1.4)
stoichiometry N [3]: 1.4 per Sed5p
stoichiometry N [4]: 1.3 per Sed5p

B3: His10-Sly1p (NH2-terminally His10-tagged full-length Sly1p) (natural protein)
chain: MAVEEIASRKDISLRDMQISAILKMLFLNKDLNNNDNITTITDDIFNQQEIIWKVLILDIKSTATISSVLRVNDLLKAGITVHSLIKQDRSPLPDVPAIYFVSPTKENIDIIVNDLKSDKYSEFYINFTSSLPRNLLEDLAQQVSITGKSDKIKQVYDQYLDFIVTEPELFSLEISNAYLTLNDPKTTEEEITGLCANIADGLFNTVLTINSIPIIRAAKGGPAEIIAEKLGTKLRDFVINTNSSSTSTLQGNDSLERGVLIILDRNIDFASMFSHSWIYQCMVFDIFKLSRNTVTIPLESKENGTDNTTAKPLATKKYDIEPNDFFWMENSHLPFPEAAENVEAALNTYKEEAAEITRKTGVTNISDLDPNSNNDTVQIQEVVKKLPELTAKKNTIDTHMNIFAALLSQLESKSLDTFFEVEQDPGSTKTRSRFLDILKDGKTNNLEDKLRSFIVLYLTSTTGLPKDFVQNVENYFKENDYDINALKYVYKLREFMQLSNMSLQNKSLEDGSDSAFKPSNLTLSGIYGLTEGKLQGGVGSLISGIKKLLPEKKTIPITNVVDAIMDPLNSSQKNLETTDSYLYIDPKITRGSHTRKPKRQSYNKSLVFVVGGGNYLEYQNLQEWAHSQLHNPKKVMYGSTAITTPAEFLNEISRLGASNSSNNDA
stoichiometry of Sly1p–Sed5p–Bos1p–Sec22p–Bet1p in the isolated complex [5]: 1 molar ratio (GST–Sec22p = 1.4)
stoichiometry N [4]: 1.2 per Sed5p

B4: preformed Sed5p–Sly1p heterodimer in solution (His-Sly1p–His-Sed5p) (complex)
chain 1: MAVEEIASRKDISLRDMQISAILKMLFLNKDLNNNDNITTITDDIFNQQEIIWKVLILDIKSTATISSVLRVNDLLKAGITVHSLIKQDRSPLPDVPAIYFVSPTKENIDIIVNDLKSDKYSEFYINFTSSLPRNLLEDLAQQVSITGKSDKIKQVYDQYLDFIVTEPELFSLEISNAYLTLNDPKTTEEEITGLCANIADGLFNTVLTINSIPIIRAAKGGPAEIIAEKLGTKLRDFVINTNSSSTSTLQGNDSLERGVLIILDRNIDFASMFSHSWIYQCMVFDIFKLSRNTVTIPLESKENGTDNTTAKPLATKKYDIEPNDFFWMENSHLPFPEAAENVEAALNTYKEEAAEITRKTGVTNISDLDPNSNNDTVQIQEVVKKLPELTAKKNTIDTHMNIFAALLSQLESKSLDTFFEVEQDPGSTKTRSRFLDILKDGKTNNLEDKLRSFIVLYLTSTTGLPKDFVQNVENYFKENDYDINALKYVYKLREFMQLSNMSLQNKSLEDGSDSAFKPSNLTLSGIYGLTEGKLQGGVGSLISGIKKLLPEKKTIPITNVVDAIMDPLNSSQKNLETTDSYLYIDPKITRGSHTRKPKRQSYNKSLVFVVGGGNYLEYQNLQEWAHSQLHNPKKVMYGSTAITTPAEFLNEISRLGASNSSNNDA
chain 2: MNIKDRTSEFQQSVLSYKKRNKNFREQQRERLQEKESENFANNTTGNGKSVSEFQKKASGIAHEISSTAQLLSKLAVLAKRKPMFNDNPVEIAELSFLIKRKIYAIEQSLVQLSQLKKTDVNGNTSNQSSKQPSAVQHSKNVVNLLNTQMKNISGSFKDVLEERQRLEMANKDRWQKLTTDTGHAPADDQTQSNHAADLTTYNNSNPFMTSLLDESSEKNNNSSNQGELSFPQNDSQLMLMEEGQLSNNVYLQERNRAVETIESTIQEVGNLFQQLASMVQEQGEVIQRIDANVDDIDLNISGAQRELLKYFDRIKSNRWLAAK
stoichiometry N [6]: 0.44 Sed5p per Sec22p
stoichiometry N [7]: 0.99 Sed5p per Sec22p
stoichiometry N [8]: 0.3 Sed5p per Sec22p
